The series concerns the molecule itself. In words: cryo-EM structure.

For orientation: stoichiometry N means the number of molecules, sites or subunits per partner or assembly.

B1: phosphoglucomutase GlmM of Lactococcus lactis (enzyme, UniProt A2RIG0 1-452, looked up)
chain: MGKYFGTDGVRGEANVELTPEMAFKLGRFGGYVLSQHELETPKVYVGRDTRISGQMLASSLISGLLSVGIEVYDLGVIATPGVAYLVKKDGASAGVMISASHNPALDNGIKFFGGDGYKLEDEKELEIEALIDAKEDTLPRPSAQGLGMLHDYIEGVRKYQAFLKTTAEGDFEGYNVVLDTANGASYTSARAVFADLKANLTVIGENPDGLNINVKVGSTHPEAMAKKVVETGSDLGLAFDGDADRLIAVDENGEIVDGDKIMFIVGKYLLEQGKLAQDTLVTTVMSNLGFHLALEEAGINSVITAVGDRYVVEEMKKNNYNFGGEQSGHMIFLDYNTTGDGQLSAIQLLKVMRETGKTLSELASEVTIYPQKLVNVRVKDNAAKKSAMDVPAIQKVISEMETSMNGKGRILVRPSGTEPLLRVMAEAPTHEQVDHVVDTIVEVVEEEIGVK
For B1, the “stoichiometry N” value was 2.

Source of the values: PMC11686323 (Communications Biology, 2024).
